The target of assay [1] is endogenous beta-catenin (HEK293 cells) (human) (UniProt P35222). The experiment in a line: cell-based or functional assay.
In assay [2] the target is T1, recombinant full-length human beta-catenin (human, UniProt P35222 2-781, biotinylated in the ELISA and SPR assays (sites not given); not biotinylated on the Western blots).
T1 construct: Tags are not described; also called β-catenin; biotinylated beta-catenin
T1 sequence: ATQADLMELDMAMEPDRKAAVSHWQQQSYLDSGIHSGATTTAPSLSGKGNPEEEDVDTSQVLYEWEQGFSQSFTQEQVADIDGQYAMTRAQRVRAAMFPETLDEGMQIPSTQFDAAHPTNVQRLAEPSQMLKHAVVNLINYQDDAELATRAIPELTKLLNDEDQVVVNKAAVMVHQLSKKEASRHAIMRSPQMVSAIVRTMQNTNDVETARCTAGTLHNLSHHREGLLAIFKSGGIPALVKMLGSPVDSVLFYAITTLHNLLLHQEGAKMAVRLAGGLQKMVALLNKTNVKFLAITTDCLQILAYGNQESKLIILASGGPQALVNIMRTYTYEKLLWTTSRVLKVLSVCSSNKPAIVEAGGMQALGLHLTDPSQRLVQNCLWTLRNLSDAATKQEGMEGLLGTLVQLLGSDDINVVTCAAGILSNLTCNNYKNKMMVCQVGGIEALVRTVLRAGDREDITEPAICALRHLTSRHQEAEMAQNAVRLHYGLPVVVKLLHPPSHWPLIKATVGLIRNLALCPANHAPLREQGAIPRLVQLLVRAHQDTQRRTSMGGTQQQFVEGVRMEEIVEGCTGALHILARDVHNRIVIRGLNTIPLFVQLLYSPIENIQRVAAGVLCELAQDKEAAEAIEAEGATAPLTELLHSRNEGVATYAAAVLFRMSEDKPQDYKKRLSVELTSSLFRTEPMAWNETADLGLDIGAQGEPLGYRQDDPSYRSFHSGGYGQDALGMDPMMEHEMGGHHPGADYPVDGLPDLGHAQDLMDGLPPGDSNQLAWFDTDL
The experiment in a line: ELISA on captured biotinylated beta-catenin. In general terms: An ELISA detects its analyte on a solid surface through an enzyme-linked reagent.

Assay [3] deals with T1, recombinant full-length human …. In words: SPR (Biacore T100), biotinylated beta-catenin captured on streptavidin, VHH-scFc in solution. The procedure: SPR-Affinity measurements: Affinity measurements were performed using a Biacore™T100. Streptavidin was immobilised onto the carboxymethylated dextran coated gold surface of a CM5 sensor chip using amine coupling chemistry, as per manufacture's instructions. The concentrations of streptavidin used in flow cells 1˜4 respectively were 0 μg/mL, 5 μg/mL, 15 μg/mL, 45 μg/mL in 10 mM NaOAc pH5. Biotinylated beta-catenin was then captured on flow cells 2-4 whilst flow cell 1 was the control reference cell. Samples of VHH-scFc at 1 in 2, 1 in 5, 1 in 10, 1 in 20 and 1 in 40 dilutions in HBS-EP were passed over all flow cells for 5 minutes at 30 μL/minute. Buffer blanks were run between every sample set and control transfection supernatant samples were included in each run. Between each sample the chip was regenerated by the addition of 30 μL of 2M guanidine hydrochloride followed by 30 μL of 40 mM HCl. Affinity constants were determined by the fitting of resulting data using BiaEvalution software with a Langmuir 1:1 association method, associations were rejected if the Chi2 value was greater than 1; if the residual data points were not randomly distributed or if the residuals were greater than +/−2 RU. The association data were plotted for the most dilute samples which still gave a RU capture response of at least 40RU. A minimum of four different combinations of dilutions and different beta-catenin coated flow cells were used to calculate association ‘on-rate’ (ka) or dissociation data ‘off-rate’ (kd), and used to calculate KD=kd/ka.
On the technique in general: Surface plasmon resonance follows binding to a sensor surface in real time, without labels.

The target is the same in assay [4]. The experiment in a line: ELISA: biotinylated beta-catenin captured on streptavidin plates, VHH-scFc in half-log dilutions from 32 nM, anti-mouse Fc HRP, delta OD 630/490 nm [lower panel]. The procedure:
FIG. 6: beta-catenin binding ELISA results for parent VHHs and CDR3 mutants. […] The plates were read at 630 and 490 nm and ΔOD recorded. The negative control is a ‘no DNA’ control transfection culture supernatant.
Beta-catenin binding ELISA: ELISA plates were coated with streptavidin ([…]). Biotinylated beta-catenin (1 mg/mL) was added in PBS, for 30 minutes. Blocked samples were added (phage samples or transient VHHscFc samples). After an hour, bound samples were detected using a suitable antibody at 1 in 5,000 dilution in PBS (containing 3% BSA). Detection antibodies were goat anti-M13-HRP (GE Healthcare) or goat anti-mouse Fc HRP (Jackson ImmunoResearch).
The binding of the parent intrabodies and CDR3 mutants to recombinant β-catenin was also tested by ELISA. […] IBV1.CDRAAA and IBS.CDRAAA also appeared to be suitable CDR3 mutant controls for their respective parent except for their lower expression levels within the bioassay. This is not uncommon in conventional antibody expression and single point mutations in antibody CDRs leading to over a 100-fold reduction in expression have been previously reported.

Assay [5] has the same target. In words: Western blot of reduced recombinant beta-catenin on PVDF, probed with IBV1.CDRAAA-scFc transient supernatant at 16 nM, detected with anti-mouse Fc HRP. The procedure: FIG. 5: Reducing anti-beta-catenin Western blots probed by the intrabodies. Gel A:) IBV1-scFc (23 nM), Gel B: IBV2-scFc (110 nM), Gel C: IBV3-scFc (85 nM) and Gel D: IBV1.CDRAAA-scFc (16 nM) transient supernatants. Any binding was detected with t anti-mouse Fc HRP antibody. In each gel, Lane 1) 15 ng beta-catenin, Lane 2) 7.5 ng beta-catenin, Lane 3) 3.75 ng beta-catenin.
The presence of beta-catenin was successfully detected by all three parent VHHs and not by the control mutant IBV1.CDRAAA.
Background: In western blotting, separated proteins are transferred to a membrane and probed.

Residue numbers refer to the chain shown, from its start.

B1: intrabody S (VHH expressed intracellularly) (VHH, not shown: small tags and cut ends)
VHH: QVQLVESGGGLVQAGGSLRLSCAASGVSFSRTSLGWFRQAPGKEREFVSVISWIGGTTYYADSLKGRFTISRDNAKSTVYLQMNSLKPEDTALYYCAISNGVLPRTEGAFASWGQGTQVTVSS
B1 displayed a firefly luciferase activity signal, PPSP-stimulated HEK293 TCF/LEF reporter bioassay (% of control VHH signal) in assay [1] below 25.

B2: IBS-scFc (Fc fusion, not shown: a dimerising Fc or GST; large carriers; small tags and cut ends)
VHH: B1 VHH
notes: Single chain mouse IgG Fc construct, used as transient HEK293 supernatant; also called VH-S
In the case of B2, the Kd (in general, the free concentration of one partner at which half of the binding sites on the other are occupied at equilibrium, for simple one-to-one binding) in assay [2] was below 10 nM. Besides, in assay [3], the dissociation constant (Kd) stood at 3.78 nM; the koff – broadly, the rate constant with which the complex falls apart – was 0.000248 s⁻¹; the kon (in general, a measure of how fast the partners come together) was 65600 M⁻¹ s⁻¹.

B3: IBS.CDRAAA-scFc (Fc fusion, not shown: a dimerising Fc or GST; small tags and cut ends)
VHH: B1 VHH with E6Q, R105A, E107A, F110A
notes: CDR3 mutant control of S in the VHH-scFc format; also called VH-S.CDRAAA
B3: the binding result in assay [4] was “no binding (tested: 32 nM)”.

B4: intrabody O (VHH expressed intracellularly) (VHH, not shown: small tags and cut ends)
VHH: QVQLVQSGGGLVQAGDSLRLACAASEGTFRTNVMGWFRQAPGKEREFVAAISWSGGITHYSNSVKGRFAISRDNAKNTVYLQMNSLKPEDTAVYYCAADPSTTPWNLRVRVNEYEYWGQGTQVTVSS
In assay [1], B4 had a firefly luciferase activity signal, PPSP-stimulated HEK293 TCF/LEF reporter bioassay (% of control VHH signal) below 25; an inhibition of beta-catenin co-transcriptional activity, HEK293 bioassay stimulated with LiCl2, against IBO.CDRAAA (1) of 65%; an inhibition of beta-catenin co-transcriptional activity, HEK293 bioassay stimulated with Wnt3a-conditioned media, against IBO.CDRAAA (1) of 66%; a percentage inhibition of firefly luciferase production in the bioassay, IBO against IBO.CDRAAA (1) of 83%.

B5: IBO-scFc (Fc fusion, not shown: a dimerising Fc or GST; large carriers; small tags and cut ends)
VHH: B4 VHH
notes: Single chain mouse IgG Fc construct; It is placed under this molecule; also called VH-O; biotinylated-'O'
For B5, the dissociation constant (Kd) in assay [2] is below 10 nM. For the same molecule, in assay [3], the Kd came to 3.65 nM, the off-rate (koff) amounted to 0.00026 s⁻¹ and the kon was found to be 71100 M⁻¹ s⁻¹.

B6: IBO.CDRAAA (1)-scFc (Fc fusion, not shown: a dimerising Fc or GST; small tags and cut ends)
VHH: B4 VHH with P104A, W105A, N106A
notes: CDR3 mutant control of O in the VHH-scFc format; also called VH-O.CDRAAA(1)
As for B6, in assay [4], the binding result was “no binding (tested: 32 nM)”.

B7: IBO.CDRAAA (2)-scFc (Fc fusion, not shown: a dimerising Fc or GST; small tags and cut ends)
VHH: B4 VHH with R108A, V109A, R110A
notes: CDR3 mutant of O in the VHH-scFc format; also called VH-O.CDRAAA(2)
In the case of B7, the binding result in assay [4] was “binds”.

B8: intrabody V1 (VHH expressed intracellularly) (VHH, not shown: small tags and cut ends)
VHH: QVQLVQSGGGLVQPGGSLRLSCAASGSISSNNVMGWYRQGPGKQREFVASITDSDLANYAASVKGRFTISRDNAKNTVNLQMNSLRPEDTDVYYCRLTMMTYPPTISWGQGTQVTVSS
Take B8: the firefly luciferase activity signal, PPSP-stimulated HEK293 TCF/LEF reporter bioassay (% of control VHH signal) in assay [1] was below 25.

B9: intrabody V2 (VHH expressed intracellularly) (VHH, not shown: small tags and cut ends)
VHH: B8 VHH with T105I
On to B9, for which the firefly luciferase activity signal, PPSP-stimulated HEK293 TCF/LEF reporter bioassay (% of control VHH signal) in assay [1] is below 25.

B10: IBV1-scFc (Fc fusion, not shown: a dimerising Fc or GST; large carriers; small tags and cut ends)
VHH: B8 VHH
notes: Single chain mouse IgG Fc construct, used as transient HEK293 supernatant; also called VH-V1; VHH-scFc of V1
Consider B10, for which, in assay [2], the Kd was below 10 nM. Further, in assay [3], the Kd was 6.49 nM, the koff was 0.000163 s⁻¹ and the on-rate (kon) was found to be 25100 M⁻¹ s⁻¹.

B11: intrabody V3 (VHH expressed intracellularly) (VHH, not shown: small tags and cut ends)
VHH: B8 VHH with Q6E, S27T, I51V, D91G, M99I
As to B11, the firefly luciferase activity signal, PPSP-stimulated HEK293 TCF/LEF reporter bioassay (% of control VHH signal) in assay [1] is below 25.

B12: IBV3-scFc (Fc fusion, not shown: a dimerising Fc or GST; large carriers; small tags and cut ends)
VHH: B8 VHH with Q6E, S27T, I51V, D91G, M99I
notes: Single chain mouse IgG Fc construct, used as transient HEK293 supernatant; also called VH-V3
For B12, the equilibrium dissociation constant (Kd) in assay [2] is below 10 nM. Moreover, in assay [3], the Kd came out at 4.38 nM, the koff turned out to be 0.000169 s⁻¹ and the kon is 38500 M⁻¹ s⁻¹.

B13: IBV2-scFc (Fc fusion, not shown: a dimerising Fc or GST; large carriers; small tags and cut ends)
VHH: B8 VHH with T105I
notes: Single chain mouse IgG Fc construct, used as transient HEK293 supernatant; also called VH-V2
B13: the Kd in assay [2] was below 10 nM. For the same molecule, in assay [3], the Kd stood at 4.47 nM, the dissociation rate constant (koff) turned out to be 0.000165 s⁻¹ and the association rate constant (kon) came out at 36900 M⁻¹ s⁻¹.

B14: IBV1.CDRAAA-scFc (Fc fusion, not shown: a dimerising Fc or GST; small tags and cut ends)
VHH: B8 VHH with Y102A, P103A, P104A
notes: CDR3 mutant control of V1 in the VHH-scFc format; also called VH-V1.CDRAAA
On to B14, for which the binding result in assay [5] is recorded as “no binding (tested: 16 nM)”.

For the origin of these results see US20260167713A1 (UCB, published 2026).
